Key:
[1] = test system: K4 kissing-loop RNA reporter; assay: apparent KD of K4 kissing-loop reporter; higher = weaker reporter binding; settings: Eterna round: R107;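 further: bound reporter read as fluorescence of individual clusters on recovered sequencing chips by microscopy, with normalized cluster intensities fitted with a binding model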
Experimental: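 RNA-MaP round R107: designed RNA switches with theophylline, tryptophan, arginine or FMN aptamers are transcribed on-chip within common flanks. They are titrated with a labelled K4 kissing-loop RNA reporter in RNA-MaP buffer (100 mM Tris pH 7.5, 80 mM KCl, 4 mM MgCl2), without ligand or with the indicated ligand. Median apparent KD per design.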

MS2 coat protein = assay: apparent KD of MS2 coat protein; designed switch direction (-1 OFF switch, 1 ON switch): -1; higher = weaker reporter binding
How it was run: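 Three titration conditions were used: no input, 200 uM small-molecule ligand, and an oligonucleotide input. In each, SNAP-549-labelled MS2 coat protein was raised from 0.7 or 1.5 nM, doubling, to 3 µM over designed RNA switches transcribed on Illumina chips by stalled E. coli RNA polymerase. Curve fits of normalised cluster fluorescence gave values whose per-design median over clusters is the apparent KD.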

[2] = input ligand: microRNA oligo, concentration not stated
[3] = Eterna round: R95, input ligand: FMN 200 uM
[4] = Eterna round: R95, input ligand: microRNA oligo, concentration not stated
[5] = Eterna round: R95, input ligand: none

## AAAUAUUCGAGUGAUGUUCGAUAAAUUUCAGAGGAUAUGCUUAAAAGCAGAAGGCUGUAUUUCUAUUUGUUAUUAAAUUUUAUAA [JR_ExcFMNA_Sub002]
[1]; input ligand: FMN 200 uM
  apparent KD of K4 kissing-loop reporter: 0.0903 µM
[1]; input ligand: arginine 13.2 mM
  apparent KD of K4 kissing-loop reporter: 0.107 µM
[1]; input ligand: none
  apparent KD of K4 kissing-loop reporter: 0.0911 µM
[1]; input ligand: theophylline 20 uM
  apparent KD of K4 kissing-loop reporter: 0.111 µM
[1]; input ligand: tryptophan 2.4 mM
  apparent KD of K4 kissing-loop reporter: 0.0769 µM

## UGAAGGUCAGGAUAUGAGUCUAUCUGACGCAGACAUAGACAUUAGAAGGGACAUGAGGAUCACCCAUGUGGGAC [Eternabot (L1) Solution 29] (Eterna round: R97, puzzle: Exclusion 4)
MS2 coat protein; input ligand: FMN 200 uM
  apparent KD of MS2 coat protein: 0.106 µM
MS2 coat protein; input ligand: none
  apparent KD of MS2 coat protein: 0.0848 µM

## UUAAUUAAUUUAUUAGAUCCUCACAUGAGGAUCACCCAUGUGCAGGAUAUCAGCUCGUGUAGAGCUGAGAAGGGCACUAUAAAU [ExNG3/10-B3] (Eterna round: R96, puzzle: Exclusion NG 3)
MS2 coat protein; input ligand: FMN 200 uM
  apparent KD of MS2 coat protein: 0.0298 µM
MS2 coat protein; [2]
  apparent KD of MS2 coat protein: 0.0615 µM
MS2 coat protein; input ligand: none
  apparent KD of MS2 coat protein: 0.116 µM

## UUUAAUUUUUUUUUUUUACAAGCUUUUUGCUCGUCUUAUACAUGAGGAUCACCCAUGUAAGUGGAAGAUAAAUUAUC [JMF 10] (puzzle: Sensor v3, turn-off variant 2)
MS2 coat protein; [3]
  apparent KD of MS2 coat protein: 0.0182 µM
MS2 coat protein; [4]
  apparent KD of MS2 coat protein: 0.0214 µM
MS2 coat protein; [5]
  apparent KD of MS2 coat protein: 0.0165 µM

## AGGGCUGCUCAGGAUAUCCGUAAAAGCCGAAAAGGAGAAGGGAGCACAUGAGGAUCACCCAUGUGAUCCUAAAA [Orbemaored] (puzzle: Exclusion 6)
MS2 coat protein; [3]
  apparent KD of MS2 coat protein: 0.028 µM
MS2 coat protein; [4]
  apparent KD of MS2 coat protein: 0.0146 µM
MS2 coat protein; [5]
  apparent KD of MS2 coat protein: 0.0155 µM

## CAGUACUGAGGAUAUACAUGAGGAUCACCCAUGUGUUCCUGCUAGGAAACUAGCAAAGGUAGAAGGCAGUACUG [Salish 065 m3] (Eterna round: R97, puzzle: Exclusion 3)
MS2 coat protein; input ligand: FMN 200 uM
  apparent KD of MS2 coat protein: 0.464 µM
MS2 coat protein; input ligand: none
  apparent KD of MS2 coat protein: 0.0279 µM

## AAGGAUAGAGGAUAUACAUAGAUACAGAUUCAUGUAAUCCUACAUGAGGAUCACCCAUGUAGAAGGCUAUCCUA [Fiskers Ex 2 - 15] (puzzle: Exclusion 2)
MS2 coat protein; [4]
  apparent KD of MS2 coat protein: 0.0145 µM

## UUGAACAUAGGAUAUAGUUGUUUGUACAUGAGGAUCACCCAUGUUAUGUAUGUUUUGUUUCUAGAAGGAUGUUGAU [JR_E5_Sub002] (puzzle: Exclusion 5)
MS2 coat protein; [4]
  apparent KD of MS2 coat protein: 0.0325 µM

## UAGUACAGAGGAUAUACAUGAGGAUCACCCAUGUGUUUCAGCUAGGAGACUAGCGAAAGUAGAAGGCUGUACUU [salish99_ex3_r4_009] (Eterna round: R97, puzzle: Exclusion 3)
MS2 coat protein; input ligand: FMN 200 uM
  apparent KD of MS2 coat protein: 0.0224 µM
MS2 coat protein; input ligand: none
  apparent KD of MS2 coat protein: 0.0084 µM

## GAAAAGUGAGGAUAUGGUAAAAGAAGAAGAAGAAGAAAACUCCAGAAGGCACAUGAGGAUCACCCAUGUGAAAG [salish99_ex4_r3_008] (puzzle: Exclusion 4)
MS2 coat protein; [3]
  apparent KD of MS2 coat protein: 0.017 µM
MS2 coat protein; [4]
  apparent KD of MS2 coat protein: 0.0171 µM
MS2 coat protein; [5]
  apparent KD of MS2 coat protein: 0.0165 µM

## GGUUACAAGCUAAGAUCCUACAUGAGGAUCACCCAUGUGGUCCGGUGACGUGAGUCACCGGACUUAGCUCGUCUUGU [salish99_S_TOV1_R5_002] (Eterna round: R97, puzzle: Sensor, turn-off variant 1)
MS2 coat protein; input ligand: FMN 200 uM
  apparent KD of MS2 coat protein: 0.0754 µM
MS2 coat protein; input ligand: none
  apparent KD of MS2 coat protein: 0.08 µM

## UAUUAACAAGCUAGGUCCCACAUGAGGAUCACCCAUGUGCUCGUCUUAUAAGGUACUGUGACGAAAGUCACGGUACC [Sensor 3, v1 - 79] (puzzle: Sensor v3, turn-off variant 1)
MS2 coat protein; [3]
  apparent KD of MS2 coat protein: 0.03 µM
MS2 coat protein; [4]
  apparent KD of MS2 coat protein: 0.909 µM
MS2 coat protein; [5]
  apparent KD of MS2 coat protein: 0.0315 µM

## UAACAUGUAGAAGGAUAUCUGCACGAUUAGUGCAGAGAAGGUCUAACAUGAGGAUCACCCAUGUAGAUCAUUAAUUAAUUAAUU [ENG1/8-B1] (Eterna round: R96, puzzle: Exclusion NG 1)
MS2 coat protein; input ligand: FMN 200 uM
  apparent KD of MS2 coat protein: 0.0152 µM
MS2 coat protein; [2]
  apparent KD of MS2 coat protein: 0.00843 µM
MS2 coat protein; input ligand: none
  apparent KD of MS2 coat protein: 0.0124 µM

## UGUUGUCGCGUAGGAUAUGUAUGAGGAUCACCCAUAAGAGUAUAUUUACCAUGAGGAUCACCCAUGUAGAAGGACGGGACAACU [pwkr exNG2 2xF5 1xFMN.12] (Eterna round: R96, puzzle: Exclusion NG 2)
MS2 coat protein; input ligand: FMN 200 uM
  apparent KD of MS2 coat protein: 0.232 µM
MS2 coat protein; [2]
  apparent KD of MS2 coat protein: 0.0756 µM
MS2 coat protein; input ligand: none
  apparent KD of MS2 coat protein: 0.127 µM

## AAGUAUAGAGGAUAUAGUGAGUACUACAUGAGGAUCACCCAUGUUCUUCAUUACGUAUUUCUAGAAGGCUGAUAAA [EX-5 Malc#24] (puzzle: Exclusion 5)
MS2 coat protein; [3]
  apparent KD of MS2 coat protein: 0.611 µM
MS2 coat protein; [4]
  apparent KD of MS2 coat protein: 0.261 µM
MS2 coat protein; [5]
  apparent KD of MS2 coat protein: 0.289 µM

## AAAUAAAAACAAGCAAAACACAUGAGGAUCACCCAUGUAAAGGGUGAAGUUCGCACCCAAAAAUAAAAUAAAUAAAA [another turnoff var 1st] (Eterna round: R96, puzzle: Sensor v2, turn-off variant)
MS2 coat protein; input ligand: FMN 200 uM
  apparent KD of MS2 coat protein: 0.0267 µM
MS2 coat protein; [2]
  apparent KD of MS2 coat protein: 0.0298 µM
MS2 coat protein; input ligand: none
  apparent KD of MS2 coat protein: 0.0249 µM

## AAUAACAGAGGAUAUACUGUUUUAUGUGUUUGUUGUUUUGAACAUGAGGAUCACCCAUGUAGAAGGCUGAUUAA [JMF 53] (Eterna round: R96, puzzle: Exclusion 2)
MS2 coat protein; input ligand: FMN 200 uM
  apparent KD of MS2 coat protein: 0.0384 µM
MS2 coat protein; [2]
  apparent KD of MS2 coat protein: 0.031 µM
MS2 coat protein; input ligand: none
  apparent KD of MS2 coat protein: 0.0385 µM

## UUUUACAAGCUAAGAUCCUACAUGAGGAUCACCCAUGUGGUCCGGUGACGUGAGUCACCGGACUUAGCUCGUCUUGG [salish99_S_TOV1_R5_087] (Eterna round: R97, puzzle: Sensor, turn-off variant 1)
MS2 coat protein; input ligand: FMN 200 uM
  apparent KD of MS2 coat protein: 0.0695 µM
MS2 coat protein; input ligand: none
  apparent KD of MS2 coat protein: 0.0847 µM

## AAGGGUGCUUUCAGAACGACAUGAGGAUCACCCAUGUAGACUGAGGAUAUCUACUCCUAAGGACGGGAGAAGGCAGUGUAAUGC [Ex NG3 #65] (Eterna round: R96, puzzle: Exclusion NG 3)
MS2 coat protein; input ligand: FMN 200 uM
  apparent KD of MS2 coat protein: 0.0195 µM
MS2 coat protein; [2]
  apparent KD of MS2 coat protein: 0.0142 µM
MS2 coat protein; input ligand: none
  apparent KD of MS2 coat protein: 0.0217 µM

## UGUUGUUACGUAGGAUAUCCACCAACAGGUGGAAGGAUAUGUACGCAGAAGGUUCGCCAACAGGCGGAGAAGGACGGGUUAACA [pwkr exNG2 2xF7 2xFMN.27] (Eterna round: R96, puzzle: Exclusion NG 2)
MS2 coat protein; input ligand: FMN 200 uM
  apparent KD of MS2 coat protein: 1.37 µM
MS2 coat protein; [2]
  apparent KD of MS2 coat protein: 0.473 µM
MS2 coat protein; input ligand: none
  apparent KD of MS2 coat protein: 0.3 µM

## GAGGCCAUAGGAUAUCUGUUACGGGACAUGAGGAUCACCCAUGUACUGGCAAGUCCUCGGAGAGAAGGAUGACUCU [Eternabot (L1) Solution 68] (Eterna round: R97, puzzle: Exclusion 5)
MS2 coat protein; input ligand: FMN 200 uM
  apparent KD of MS2 coat protein: 0.0219 µM
MS2 coat protein; input ligand: none
  apparent KD of MS2 coat protein: 0.0183 µM

## GGUACUAUCACCUGAGUGGUAGUGCCAUAAGCUUGUGAUACAUGAGGAUCACCCAUGUCCUCAUUUGCUCGUCUUAU [JL-sv3-2.27 JL mod] (puzzle: Sensor v3, turn-off variant 2)
MS2 coat protein; [3]
  apparent KD of MS2 coat protein: 0.486 µM
MS2 coat protein; [4]
  apparent KD of MS2 coat protein: 0.394 µM

## AGUACUAACACGAGAGUGUUAGUACUAUAAGCUUGUGUUACAUGAGGAUCACCCAUGUCCUCAUAAGCUCGUCUUAU [Mat - Sensor v3 - Turn-off var 2 - D79] (puzzle: Sensor v3, turn-off variant 2)
MS2 coat protein; [3]
  apparent KD of MS2 coat protein: 0.124 µM
MS2 coat protein; [4]
  apparent KD of MS2 coat protein: 0.0405 µM
MS2 coat protein; [5]
  apparent KD of MS2 coat protein: 0.116 µM

Source: the supplement of paper PMC9170038
